This note sets out measurements from patent publication US20260049279A1 (published 2026).

The target of this experiment is T1, ALK peptide on H-2Dd (mouse).
T1 peptide: PGPGRVAKI
The experiment can be described thus: multimer staining.

B1: Clonotype_1 (Table 1) (TCR, V domains shown)
Valpha: QQKVQQSPESLSVPEGGMASFNCTSSDRNFQYFWWYRQHSGEGPKALMSIFSDGDKKEGRFTAHLNKASLHVSLHIRDSQPSDSALYFCAASEHGNNRIFFGDGTQLVVKP
Vbeta: ETAVFQTPNYHVTQVGNEVSFNCKQTLGHDTMYWYKQDSKKLLKIMFSYNNKQLIVNETVPRRFSPQSSDKAHLNLRIKSVEPEDSAVYLCASSQDWDEQYFGPGTRLTVL
With B1, the binding result is listed as “recognises”.
